The results in this text go back to patent US10501734B2, “Compositions and methods of use thereof for making polypeptides with many instances of nonstandard amino acids” (Yale University, priority 2014, dated 2019).

Read-outs that look alike come from different tables or passages of the source.

Series [1] deals with GFP(3TAG). It is filed as cell-based, E. coli. The settings on record: chromosomally integrated AARS; pAcF. The protocol:
(§1) Liquid cell cultures of strains harboring chromosomally integrated OTSs and GFP reporter plasmids were inoculated from frozen stocks and grown to confluence overnight. Cultures were then inoculated at 1:20 dilution in LBmin media supplemented with 30 μg/ml kanamycin. Strains were inoculated by addition of 1:20 confluent cell culture (grown overnight) and allowed to grow at 34° C. to an OD600 of 0.5-0.8 in a shaking plate incubator at 650 r.p.m (˜3 h). AARS expression was then induced by the addition of 0.2% arabinose, GFP expression was induced by the addition of 60 ng/ul anhydrotetracycline, and the appropriate nsAA was added to a concentration of 1 mM. Cells were incubated at 34° C. for an additional 16 h. Liquid cell cultures of strains harboring plasmid-based OTSs and GFP or ELP-GFP reporter plasmids were inoculated from frozen stocks and grown to confluence overnight. Cultures were then inoculated at 1:20 dilution in 2×YT media supplemented with 30 μg/ml kanamycin and 20 μg/ml chloramphenicol. […] Cells were allowed to grow at 34° C. to an OD600 of 0.5-0.8 in a shaking plate incubator at 650 r.p.m (˜3 h), reporter protein expression was then induced by the addition of 60 ng/ul anhydrotetracycline, and cells were incubated at 34° C. for an additional 16 h.
(§2) For 384 well plate-based assays, fluorescence and OD600 were directly measured following expression. For 96 well plate-based assays, cells were centrifuged at 4,000 g for 4 min. Supernatant medium was removed and cells were resuspended in PBS. This process was repeated twice with PBS. GFP fluorescence was measured on a Biotek spectrophotometric plate reader using excitation and emission wavelengths of 395 and 509 nm, respectively). Fluorescence signals were normalized by dividing the fluorescence counts by the OD600 reading. The nsAAs used in this study were purchased from Sigma-Aldrich (St. Louis, Mo.), Chemlmpex (Wood Dale, Ill.), and Bachem (Torrance, Calif.). Solutions of nsAAs (50 mM) were made in water or 50 mM NaOH; these stock solutions were diluted 50- or 100-fold (to 1 mM final concentration) into medium used for bacterial growth.

In series [2] the test system is GFP(3TAG). Kind of series: nsAA library screening, GFP(3TAG) fluorescence in 384 well plates. Type of series: cell-based, E. coli. The settings on record: GFP(3TAG) production in the presence of pAcF, pAzF and 236 other nsAAs. The protocol: as §1
as §2, with “growth. […]” for “growth.”

A short description of series [3]: ATP-PPi exchange assay (amino acid activation). Type of series: biochemical. The protocol:
A 25 μl ATP-PPi exchange reaction contained the following components: 100 mM HEPES-KOH (pH 7.5), 30 mM KCl, 10 mM MgCl2, 2 mM DTT, 2 mM KF, 2 mM NaPPi, 5 mM ATP, […], 2 μCi/μl of […] (PerkinElmer) and varied concentrations of amino acids (0.25, 0.5, 1.25, 2.5, 5, 10, and 20 mM, respectively). The reactions were incubated at 37° C. Time points were taken at 2 minutes, 5 minutes and 10 minutes by plotting 1 μl aliquots from the reaction immediately to the PEI-cellulose plates (Merck). For each reaction, 1 μl of blank reaction mixture containing no enzymes was set as background. The reaction mixtures were separated on the plates in 1 M urea and 1 M monopotassium phosphate. The plates were then scanned in a Molecular Dynamics Storm 860 phosphorimager (Amersham Biosciences). The ratio of ATP to PPi was determined to monitor reaction progress. The kinetic constants were derived from plotting initial velocity of a series of reactions that contained varied concentrations of amino acids. The data were analyzed by GraFit 5.0 (Erithacus Software).

The next series has as its system tRNA. Kind of series: Aminoacylation assay (tRNA charging). It is filed as biochemical. The protocol: Template plasmid containing tRNA gene was purified with the plasmid maxi kit (Qiagen), and 100 μg of plasmid was digested with BstNI (New England Biolabs). The BstNI digested template DNA was purified by phenol chloroform extraction, followed by ethanol precipitation and resolved in double distilled water. A His-tagged T7 RNA polymerase was purified over column of Ni-NTA resin according to manufacturer's instructions (Qiagen). The transcription reaction [40 mM Tris (pH 8); 4 mM each of UTP, CTP, GTP, and ATP at pH 7.0; 22 mM MgCl2; 2 mM spermidine; 10 mM DTT; 6 μg pyrophosphatase (Roche Applied Science); 60 μg/mL BstNI digested DNA template, approximately 0.2 mg/ml T7 RNA polymerase] was performed in 10 ml reaction volumes for overnight at 37° C. The tRNA was purified on 12% denaturing polyacrylamide gel containing 8 M urea and TBE buffer (90 mM Tris, 90 mM boric acid, 2 mM EDTA). UV shadowing illuminates the pure tRNA band, which is excised and extracted three times with 1M sodium acetate pH 5.3 at 4° C. The tRNA extractions were then ethanol precipitated, dissolved in RNase-free distilled water, pooled, and finally desalted using a Biospin 30 column (BioRad). The ratio of aminoacylated tRNA to total tRNA was determined to monitor reaction progress.
The tRNA was refolded by heating to 100° C. for 5 min and slow cooling to room temperature. At 65° C., MgC12, was added to a final concentration of 10 mM to aid folding. A His-tagged CCA adding enzyme was purified over column of Ni-NTA resin according to manufacturer's instructions (Qiagen). 16 μM folded tRNA in 50 mM Tris (pH 8.0), 20 mM MgCl2, 5 mM DTT and 50 μM NaPPi was incubated at room temperature for 1 hour with approximately 0.2 mg/ml CCA-adding enzyme and 1.6 μCi/μl of [α-32P]-labeled ATP (PerkinElmer). The sample was phenol/chloroform extracted and then passed over a Bio-spin 30 column (Bio-Rad) to remove excess ATP.
A 20 μl aminoacylation reaction contained the following components: 50 mM HEPES-KOH (pH 7.2), 25 mM KCl, 10 mM MgCl2, 5 mM DTT, 10 mM ATP, 25 μg/ml pyrophosphatase (Roche Applied Science), 2 mM amino acids. All plateau tRNA aminoacylation levels were determined at 37° C. according to the reactions conditions described above with 500 nM enzyme, 5 μM unlabeled tRNA plus 100 nM 32P-labeled tRNA. Time points were taken at 5 minutes, 20 minutes and 60 minutes by removing 2 μl aliquots from the reaction and immediately quenching the reaction into an ice-cold 3 μl quench solution [0.66 μg/μl nuclease P1 (Sigma) in 100 mM sodium citrate (pH 5.0)]. For each reaction, 2 μl of blank reaction mixture containing no enzymes was added to the quench solution as the start time point. The nuclease P1 mixture was then incubated at room temperature for 30 min and 1 μl aliquots were spotted on PEI-cellulose plates (Merck) and developed in running buffer containing 5% acetic acid and 100 mM ammonium acetate. Radioactive spots for AMP and AA-AMP (representing free tRNA and aminoacyl-tRNA, respectively) were separated and then visualized and quantified by phosphor imaging by a Molecular Dynamics Storm 860 phosphorimager (Amersham Biosciences). The ratio of aminoacylated tRNA to total tRNA was determined to monitor reaction progress.

Where [4] appears, read: nsAA pAcF, relative to progenitor pAcFRS.
Setting [5] is: nsAA pAzF, relative to progenitor pAcFRS.
Setting [6] is: amino acid Tyrosine, relative to pAcFRS.

B1: pAcFRS.1: pAcFRS variant A167D, SEQ ID NO: 2 (protein)
chain: MDEFEMIKRNTSEIISEEELREVLKKDEKSALIGFEPSGKIHLGHYLQIKKMIDLQNAGFDIIILLADLHAYLNQKGELDEIRKIGDYNKKVFEAMGLKAKYVYGSEFQLDKDYTLNVYRLALKTTLKRARRSMELIAREDENPKVAEVIYPIMQVNGCHYRGVDVDVGGMEQRKIHMLARELLPKKVVCIHNPVLTGLDGEGKMSSSKGNFIAVDDSPEEIRAKIKKAYCPAGVVEGNPIMEIAKYFLEYPLTIKRPEKFGGDLTVNSYEELESLFKNKELHPMRLKNAVAEELIKILEPIRKRL
As a reminder, the Km is the substrate concentration at which the rate is half of its maximum. Take B1: the “higher GFP(3TAG) production compared with the progenitor enzyme” value with GFP(3TAG) [1] was about 8 fold. Further, in the series on GFP(3TAG) [2], the “nsAA specificity (polyspecificity)” value is on record as “polyspecifity for at least pAcF, pAzF, StyA, 4IF, 4BrF, 4ClF, 4MeF, 4Cf3F, MeY, 4NO2F, 4BuF, BuY, 2NaA, PheF”. For the same molecule, the Km worked out at 2160 ± 720 µM in series [3] (nsAA pAcF), 1740 ± 390 µM in series [3] (nsAA pAzF), 36 ± 7 µM in the series on tRNA (nsAA pAcF) and 31 ± 9 µM in the series with tRNA (nsAA pAzF). In addition, the kcat in series [3] (nsAA pAcF) is 6.84 ± 0.64 ×10^−2 s^−1; in series [3] (nsAA pAzF) it was 3.50 ± 0.20 ×10^−2 s^−1; in the series on tRNA (nsAA pAcF) it was 1.21 ± 0.24 ×10^−3 s^−1; with tRNA (nsAA pAzF), 0.65 ± 0.20 ×10^−3 s^−1. Further, the Fold change in series [3] (setting [4]) was determined as 4.64; in series [3] (setting [5]), 1.37; in the series with tRNA (setting [4]) it was 4.60; in the series on tRNA (setting [5]), 3.38.

B2: pAcFRS.t1: pAcFRS variant R257G, SEQ ID NO: 3 (protein)
chain: MDEFEMIKRNTSEIISEEELREVLKKDEKSALIGFEPSGKIHLGHYLQIKKMIDLQNAGFDIIILLADLHAYLNQKGELDEIRKIGDYNKKVFEAMGLKAKYVYGSEFQLDKDYTLNVYRLALKTTLKRARRSMELIAREDENPKVAEVIYPIMQVNGCHYRGVDVAVGGMEQRKIHMLARELLPKKVVCIHNPVLTGLDGEGKMSSSKGNFIAVDDSPEEIRAKIKKAYCPAGVVEGNPIMEIAKYFLEYPLTIKGPEKFGGDLTVNSYEELESLFKNKELHPMRLKNAVAEELIKILEPIRKRL
Regarding B2, the “higher GFP(3TAG) production compared with the progenitor enzyme” value in the series with GFP(3TAG) [1] is reported as about 1.5 fold. For the same molecule, the “nsAA specificity (polyspecificity)” value in the series on GFP(3TAG) [2] is reported as “polyspecifity for at least pAc.F, pAzF, StyA”. The Michaelis-Menten constant (Km) came to 9170 ± 3670 µM in series [3] (nsAA pAcF) and 17 ± 3 µM in the series with tRNA (nsAA pAcF). Further, the kcat in series [3] (nsAA pAcF) is on record as 6.92 ± 1.27 ×10^−2 s^−1; with tRNA (nsAA pAcF) it was 0.22 ± 0.02 ×10^−3 s^−1. Moreover, the Fold change in series [3] (setting [4]) was 1.11; in the series on tRNA (setting [4]), 1.77.

B3: WTmjYRS: wild-type M. jannaschii TyrRS, the parent AARS of pAcFRS (protein, UniProt Q57834 1-306, looked up)
Tyrosine--tRNA ligase: MDEFEMIKRNTSEIISEEELREVLKKDEKSAYIGFEPSGKIHLGHYLQIKKMIDLQNAGFDIIILLADLHAYLNQKGELDEIRKIGDYNKKVFEAMGLKAKYVYGSEFQLDKDYTLNVYRLALKTTLKRARRSMELIAREDENPKVAEVIYPIMQVNDIHYLGVDVAVGGMEQRKIHMLARELLPKKVVCIHNPVLTGLDGEGKMSSSKGNFIAVDDSPEEIRAKIKKAYCPAGVVEGNPIMEIAKYFLEYPLTIKRPEKFGGDLTVNSYEELESLFKNKELHPMDLKNAVAEELIKILEPIRKRL
Take B3: the kcat is reported as 52.2 ± 4.1 ×10^−2 s^−1 in series [3] (amino acid Tyrosine) and 130 ± 22 ×10^−3 s^−1 in the series with tRNA (amino acid Tyrosine). Further, the Km in series [3] (amino acid Tyrosine, read-out: Km, nsAA) came to 76 ± 30 µM; in the series with tRNA (amino acid Tyrosine) it was 23 ± 3 µM. Besides, the Fold change is listed as 1007 in series [3] (setting [6]) and 774 in the series with tRNA (setting [6]).

B4: pAcFRS.t2: pAcFRS variant R257C, F261E, SEQ ID NO: 4 (protein)
chain: MDEFEMIKRNTSEIISEEELREVLKKDEKSALIGFEPSGKIHLGHYLQIKKMIDLQNAGFDIIILLADLHAYLNQKGELDEIRKIGDYNKKVFEAMGLKAKYVYGSEFQLDKDYTLNVYRLALKTTLKRARRSMELIAREDENPKVAEVIYPIMQVNGCHYRGVDVAVGGMEQRKIHMLARELLPKKVVCIHNPVLTGLDGEGKMSSSKGNFIAVDDSPEEIRAKIKKAYCPAGVVEGNPIMEIAKYFLEYPLTIKCPEKEGGDLTVNSYEELESLFKNKELHPMRLKNAVAEELIKILEPIRKRL
With B4, the “higher GFP(3TAG) production compared with the progenitor enzyme” value in the series on GFP(3TAG) [1] was about 1.5 fold. For the same molecule, the “nsAA specificity (polyspecificity)” value in the series on GFP(3TAG) [2] is given as “polyspecifity for at least pAcF, pAzF, StyA”. The Km in series [3] (nsAA pAcF) came to 8590 ± 3230 µM; in the series on tRNA (nsAA pAcF), 29 ± 3 µM. Further, the kcat in series [3] (nsAA pAcF) is listed as 6.67 ± 1.27 ×10^−2 s^−1; with tRNA (nsAA pAcF) it was 0.27 ± 0.07 ×10^−3 s^−1. In addition, the Fold change in series [3] (setting [4]) came out at 1.14; in the series with tRNA (setting [4]), 1.27.
